Laboratory results as given in paper PMC2853136 (Nucleic Acids Research, 2010).

B1: His-tagged RNPC1a (recombinant) (natural protein, UniProt Q9H0Z9-1 1-239, looked up)
chain: MLLQPAPCAPSAGFPRPLAAPGAMHGSQKDTTFTKIFVGGLPYHTTDASLRKYFEGFGDIEEAVVITDRQTGKSRGYGFVTMADRAAAERACKDPNPIIDGRKANVNLAYLGAKPRSLQTGFAIGVQQLHPTLIQRTYGLTPHYIYPPAIVQPSVVIPAAPVPSLSSPYIEYTPASPAYAQYPPATYDQYPYAASPATAASFVGYSYPAAVPQALSAAAPAGTTFVQYQAPQLQPDRMQ

How the values were obtained:
Experiment in all cases: pull-down
[1] = target: B1
[2] = target: His-tagged HuR (recombinant) (UniProt Q15717 1-326)
GST-HuR (1–326) = GST-HuR (1–326) (UniProt Q15717 1-326)

Row | binding result [1] | Binder | other results
1 | binds | GST-HuR (183–326) (domain or fragment, UniProt Q15717 183-326, looked up) FAANPNQNKNVALLSQLYHSPARRFGGPVHHQAQRFRFSPMGVDHMSGLSGVNVPGNASSGWCIFIYNLGQDADEGILWQMFGPFGAVTNVKVIRDFNTNKCKGFGFVTMTNYEEAAMAIASLNGYRLGDKILQVSFKTNKSHK | –
2 | binds | GST-HuR (134–326) (domain or fragment, UniProt Q15717 134-326, looked up) NSRVLVDQTTGLSRGVAFIRFDKRSEAEEAITSFNGHKPPGSSEPITVKFAANPNQNKNVALLSQLYHSPARRFGGPVHHQAQRFRFSPMGVDHMSGLSGVNVPGNASSGWCIFIYNLGQDADEGILWQMFGPFGAVTNVKVIRDFNTNKCKGFGFVTMTNYEEAAMAIASLNGYRLGDKILQVSFKTNKSHK | –
3 | – | GST-RNPC1a (natural protein, UniProt Q9H0Z9-1 1-239, looked up) MLLQPAPCAPSAGFPRPLAAPGAMHGSQKDTTFTKIFVGGLPYHTTDASLRKYFEGFGDIEEAVVITDRQTGKSRGYGFVTMADRAAAERACKDPNPIIDGRKANVNLAYLGAKPRSLQTGFAIGVQQLHPTLIQRTYGLTPHYIYPPAIVQPSVVIPAAPVPSLSSPYIEYTPASPAYAQYPPATYDQYPYAASPATAASFVGYSYPAAVPQALSAAAPAGTTFVQYQAPQLQPDRMQ | binding result [2]: binds
4 | – | B1 | binding result (GST-HuR (1–326)): binds
5 | binds | GST-HuR (Δ95-244) (natural protein, UniProt Q15717 1-326, looked up) MSNGYEDHMAEDCRGDIGRTNLIVNYLPQNMTQDELRSLFSSIGEVESAKLIRDKVAGHSLGYGFVNYVTAKDAERAINTLNGLRLQSKTIKVSCIFIYNLGQDADEGILWQMFGPFGAVTNVKVIRDFNTNKCKGFGFVTMTNYEEAAMAIASLNGYRLGDKILQVSFKTNKSHK | –
